The text below walks through data of article PMC9568614 (2022).

Assay [1] addresses T1, recombinant human FcRn (FcRn alpha-chain with C-terminal BirA 10x-Histidine tag, with beta-2-microglobulin) (human, UniProt P55899 24-297; P61769 21-119). The assay can be described thus: SPR; pH 7.4.
For assay [2], the target named is T1, recombinant human FcRn (FcRn …). The assay can be described thus: SPR; pH 6.0. A general note: In SPR one partner is held on a chip, and binding of the other changes the refractive index at the surface.

B1: Fc-MST-HN (IgG1 Fc fragment with M252Y, S254T, T256E, H433K, N434F) (domain or fragment)
chain: DKTHTCPPCPAPELLGGPSVFLFPPKPKDTLYITREPEVTCVVVDVSHEDPEVKFNWYVDGVEVHNAKTKPREEQYNSTYRVVSVLTVLHQDWLNGKEYKCKVSNKALPAPIEKTISKAKGQPREPQVYTLPPSRDELTKNQVSLTCLVKGFYPSDIAVEWESNGQPENNYKTTPPVLDSDGSFFLYSKLTVDKSRWQQGNVFSCSVMHEALKFHYTQKSLSLSP
Broadly, the Kd is a measure of binding affinity in units of concentration. For B1, the results for the dissociation constant Kd in assay [1] and in assay [2] were 1220 nM and 33 nM, respectively.
